The source of these data is patent US20140072613A1, “Compositions and Methods for Treating Cutaneous Scarring” (priority 2012, published 2014).

Common to all, as to assay: biochemical
Assay type in all cases: biochemical

In assay [1] the target is 266 human kinases (Homo sapiens, UniProt P42685). Conditions: PTK5(h); 100 μM. In outline: (§1)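 Inhibition was judged from reduced transfer of labelled phosphate from ATP to a positively charged substrate, which was captured on a negatively charged membrane and quantified by scintillation counting against a 100% activity control.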
Chain of 266 human kinases (Homo sapiens, UniProt P42685) (P42685 whole entry): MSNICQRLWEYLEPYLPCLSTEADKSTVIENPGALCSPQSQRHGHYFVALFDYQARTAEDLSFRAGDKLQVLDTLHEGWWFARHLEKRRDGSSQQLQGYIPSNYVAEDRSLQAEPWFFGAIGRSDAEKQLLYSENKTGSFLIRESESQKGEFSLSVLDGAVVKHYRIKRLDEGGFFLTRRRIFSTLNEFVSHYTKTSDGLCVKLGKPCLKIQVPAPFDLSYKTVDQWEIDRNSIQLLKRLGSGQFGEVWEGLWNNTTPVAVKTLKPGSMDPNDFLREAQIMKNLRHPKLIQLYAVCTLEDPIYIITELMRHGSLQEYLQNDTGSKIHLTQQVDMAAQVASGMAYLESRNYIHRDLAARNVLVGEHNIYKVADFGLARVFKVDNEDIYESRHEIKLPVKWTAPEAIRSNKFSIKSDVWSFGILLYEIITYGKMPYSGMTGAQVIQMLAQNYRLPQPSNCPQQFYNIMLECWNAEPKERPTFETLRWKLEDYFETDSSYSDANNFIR
In assay [2] the target is 266 human kinases (Homo sapiens, UniProt P00533). The settings on record: EGFR(h); 100 μM. In outline:
as §1

The target of assay [3] is T1, 266 human kinases (Homo sapiens, UniProt O60285).
T1 sequence (O60285 1-661): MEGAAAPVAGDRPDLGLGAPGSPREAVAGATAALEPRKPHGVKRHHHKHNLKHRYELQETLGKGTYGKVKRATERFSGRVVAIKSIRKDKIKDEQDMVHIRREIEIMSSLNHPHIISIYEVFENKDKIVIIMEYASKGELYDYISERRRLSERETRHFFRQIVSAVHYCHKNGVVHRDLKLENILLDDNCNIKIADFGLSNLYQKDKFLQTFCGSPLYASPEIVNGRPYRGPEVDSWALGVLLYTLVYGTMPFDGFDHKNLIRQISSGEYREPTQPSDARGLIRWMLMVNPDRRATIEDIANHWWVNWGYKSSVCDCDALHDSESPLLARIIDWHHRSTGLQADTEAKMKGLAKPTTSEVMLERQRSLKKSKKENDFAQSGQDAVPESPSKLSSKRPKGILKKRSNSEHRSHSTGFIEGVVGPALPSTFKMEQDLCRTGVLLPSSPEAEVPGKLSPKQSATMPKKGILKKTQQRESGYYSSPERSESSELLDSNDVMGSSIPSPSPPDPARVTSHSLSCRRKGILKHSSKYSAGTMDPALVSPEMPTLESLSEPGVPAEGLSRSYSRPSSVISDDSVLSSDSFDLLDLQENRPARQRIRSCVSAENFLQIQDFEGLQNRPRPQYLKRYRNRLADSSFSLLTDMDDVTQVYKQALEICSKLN
The settings on record: ARK5(h); 100 μM. A digest of the protocol: as §1

Assay [4] deals with 266 human kinases (Homo sapiens, UniProt Q15303). The settings on record: ErbB4(h); 100 μM. A digest of the protocol:
as §1

Assay [5] addresses 266 human kinases (Homo sapiens, UniProt P15735). Conditions: PhKγ2(h); 100 μM. A digest of the protocol: as §1
Assay [6] addresses 266 human kinases (Homo sapiens, UniProt P52564). The settings on record: MKK6(h); 100 μM. In outline: as §1
Assay [7] concerns the target T2, 266 human kinases (Homo sapiens, UniProt P54762).
T2 sequence (P54762 18-984): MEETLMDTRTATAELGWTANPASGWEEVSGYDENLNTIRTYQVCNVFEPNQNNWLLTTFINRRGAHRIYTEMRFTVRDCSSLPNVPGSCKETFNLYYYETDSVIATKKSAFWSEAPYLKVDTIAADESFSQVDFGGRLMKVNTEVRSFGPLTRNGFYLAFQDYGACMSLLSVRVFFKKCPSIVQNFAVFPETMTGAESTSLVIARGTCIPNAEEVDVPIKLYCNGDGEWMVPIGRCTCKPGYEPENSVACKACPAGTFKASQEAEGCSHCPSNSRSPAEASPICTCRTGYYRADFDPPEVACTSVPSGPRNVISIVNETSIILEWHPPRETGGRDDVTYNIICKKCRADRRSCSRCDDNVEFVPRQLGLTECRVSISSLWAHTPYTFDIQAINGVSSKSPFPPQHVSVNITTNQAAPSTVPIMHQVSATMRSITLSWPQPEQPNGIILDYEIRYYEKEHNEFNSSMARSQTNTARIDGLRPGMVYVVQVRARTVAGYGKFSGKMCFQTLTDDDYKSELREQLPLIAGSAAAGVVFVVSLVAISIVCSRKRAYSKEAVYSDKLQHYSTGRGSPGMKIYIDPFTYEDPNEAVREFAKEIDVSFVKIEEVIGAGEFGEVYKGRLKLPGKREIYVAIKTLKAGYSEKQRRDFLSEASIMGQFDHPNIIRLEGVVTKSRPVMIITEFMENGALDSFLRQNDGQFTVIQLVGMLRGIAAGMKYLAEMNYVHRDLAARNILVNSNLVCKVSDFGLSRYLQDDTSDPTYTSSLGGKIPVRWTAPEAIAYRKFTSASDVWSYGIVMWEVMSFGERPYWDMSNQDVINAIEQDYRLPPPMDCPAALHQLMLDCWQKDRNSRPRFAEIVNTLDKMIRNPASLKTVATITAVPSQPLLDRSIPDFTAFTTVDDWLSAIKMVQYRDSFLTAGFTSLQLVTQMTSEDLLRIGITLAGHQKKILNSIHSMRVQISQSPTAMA
Conditions: EphB1(h); 100 μM. In outline: as §1

For assay [8], the target named is 266 human kinases (Homo sapiens, UniProt Q7KZI7). Conditions: PAR-1Bα(h); 100 μM. A digest of the protocol:
as §1

For assay [9], the target named is 266 human kinases (Homo sapiens, UniProt O96017, I157T). Conditions: CHK2(I157T)(h); 100 μM. A digest of the protocol:
as §1

Assay [10] has as its target 266 human kinases (Homo sapiens, UniProt Q16566). Conditions: CaMKIV(h); 100 μM. A digest of the protocol: as §1
Assay [11] has as its target 266 human kinases (Homo sapiens, UniProt P22607). The settings on record: FGFR3(h); 100 μM. A digest of the protocol:
as §1

Assay [12] has as its target 266 human kinases (Homo sapiens, UniProt P07948). The settings on record: Lyn(h); 100 μM. A digest of the protocol: as §1
The target in assay [13] is 266 human kinases (Homo sapiens, UniProt P00533, L858R). The settings on record: EGFR(L858R)(h); 100 μM. In outline:
as §1

The target in assay [14] is 266 human kinases (Homo sapiens, UniProt Q9BYP7). The settings on record: WNK3(h); 100 μM. A digest of the protocol:
as §1

The target of assay [15] is 266 human kinases (Homo sapiens, UniProt Q13131). The settings on record: AMPKα1(h); 100 μM. A digest of the protocol:
as §1

For assay [16], the target named is 266 human kinases (Homo sapiens, UniProt P08581, Y1230C). Conditions: Met(Y1248C)(h); 100 μM. A digest of the protocol: as §1

Chain of 266 human kinases (Homo sapiens, UniProt P22607) (P22607 23-806): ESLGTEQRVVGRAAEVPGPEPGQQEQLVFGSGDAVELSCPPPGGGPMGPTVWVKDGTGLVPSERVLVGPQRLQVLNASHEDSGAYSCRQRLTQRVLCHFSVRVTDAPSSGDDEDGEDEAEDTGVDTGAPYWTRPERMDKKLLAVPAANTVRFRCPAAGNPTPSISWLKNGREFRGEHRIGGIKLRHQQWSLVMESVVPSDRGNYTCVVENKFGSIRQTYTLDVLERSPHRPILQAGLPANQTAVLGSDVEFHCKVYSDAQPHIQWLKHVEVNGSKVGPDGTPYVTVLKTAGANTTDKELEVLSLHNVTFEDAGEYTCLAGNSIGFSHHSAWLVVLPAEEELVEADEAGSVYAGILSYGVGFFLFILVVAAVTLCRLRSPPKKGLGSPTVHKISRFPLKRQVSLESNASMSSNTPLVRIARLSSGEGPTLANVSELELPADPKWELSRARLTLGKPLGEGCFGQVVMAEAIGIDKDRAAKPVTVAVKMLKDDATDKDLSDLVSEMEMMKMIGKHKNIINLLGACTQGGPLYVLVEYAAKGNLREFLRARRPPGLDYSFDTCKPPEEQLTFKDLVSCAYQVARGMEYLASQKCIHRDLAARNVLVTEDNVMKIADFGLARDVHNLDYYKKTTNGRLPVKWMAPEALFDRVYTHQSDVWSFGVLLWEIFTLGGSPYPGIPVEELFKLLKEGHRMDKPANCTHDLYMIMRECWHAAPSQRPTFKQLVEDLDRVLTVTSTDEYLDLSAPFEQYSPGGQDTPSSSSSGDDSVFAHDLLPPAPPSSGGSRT
Chain of 266 human kinases (Homo sapiens, UniProt Q7KZI7) (Q7KZI7 whole entry): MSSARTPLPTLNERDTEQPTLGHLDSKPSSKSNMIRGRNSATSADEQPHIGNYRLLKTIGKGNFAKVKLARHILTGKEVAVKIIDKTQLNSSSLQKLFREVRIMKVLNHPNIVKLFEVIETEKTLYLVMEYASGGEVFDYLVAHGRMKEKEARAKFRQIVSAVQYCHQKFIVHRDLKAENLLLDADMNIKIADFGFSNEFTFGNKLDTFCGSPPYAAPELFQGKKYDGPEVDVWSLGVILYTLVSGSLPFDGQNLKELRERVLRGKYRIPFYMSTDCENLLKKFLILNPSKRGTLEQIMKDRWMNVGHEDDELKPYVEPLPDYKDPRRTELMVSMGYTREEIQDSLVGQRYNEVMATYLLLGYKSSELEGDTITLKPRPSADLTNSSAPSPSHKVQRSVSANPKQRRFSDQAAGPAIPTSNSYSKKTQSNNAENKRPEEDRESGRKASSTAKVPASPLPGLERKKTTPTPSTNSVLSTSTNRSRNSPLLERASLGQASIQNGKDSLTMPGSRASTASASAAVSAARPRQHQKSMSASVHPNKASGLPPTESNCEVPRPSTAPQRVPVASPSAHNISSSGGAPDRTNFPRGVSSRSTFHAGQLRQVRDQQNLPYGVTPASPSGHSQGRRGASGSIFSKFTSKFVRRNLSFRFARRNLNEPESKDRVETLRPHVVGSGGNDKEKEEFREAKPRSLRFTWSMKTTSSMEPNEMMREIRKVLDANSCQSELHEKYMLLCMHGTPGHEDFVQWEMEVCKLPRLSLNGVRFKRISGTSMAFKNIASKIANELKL
Chain of 266 human kinases (Homo sapiens, UniProt P52564) (P52564 whole entry): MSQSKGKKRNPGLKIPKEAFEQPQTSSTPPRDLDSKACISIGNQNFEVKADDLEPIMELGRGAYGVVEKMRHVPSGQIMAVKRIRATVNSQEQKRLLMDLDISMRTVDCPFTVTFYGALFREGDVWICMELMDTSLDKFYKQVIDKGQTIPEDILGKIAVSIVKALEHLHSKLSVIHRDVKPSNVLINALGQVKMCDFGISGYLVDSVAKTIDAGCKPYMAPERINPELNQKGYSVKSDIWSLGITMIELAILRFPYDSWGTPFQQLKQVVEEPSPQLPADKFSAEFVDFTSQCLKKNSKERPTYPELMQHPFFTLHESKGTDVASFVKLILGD
Chain of 266 human kinases (Homo sapiens, UniProt O96017, I157T) (O96017 whole entry I157T): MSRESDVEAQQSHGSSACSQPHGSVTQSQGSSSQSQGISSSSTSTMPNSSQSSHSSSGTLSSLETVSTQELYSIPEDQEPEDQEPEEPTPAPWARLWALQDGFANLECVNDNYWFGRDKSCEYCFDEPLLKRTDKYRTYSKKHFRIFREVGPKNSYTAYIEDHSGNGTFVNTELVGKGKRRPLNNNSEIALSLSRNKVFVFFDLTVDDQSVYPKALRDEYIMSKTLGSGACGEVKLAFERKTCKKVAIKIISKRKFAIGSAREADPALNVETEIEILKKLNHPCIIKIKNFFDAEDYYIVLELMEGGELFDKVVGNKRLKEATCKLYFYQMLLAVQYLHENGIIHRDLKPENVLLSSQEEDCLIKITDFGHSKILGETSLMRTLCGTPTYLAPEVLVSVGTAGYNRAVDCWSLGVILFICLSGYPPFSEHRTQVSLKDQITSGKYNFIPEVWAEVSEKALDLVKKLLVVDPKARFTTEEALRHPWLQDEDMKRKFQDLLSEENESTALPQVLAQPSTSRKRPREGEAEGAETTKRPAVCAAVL
Chain of 266 human kinases (Homo sapiens, UniProt Q9BYP7) (Q9BYP7 whole entry): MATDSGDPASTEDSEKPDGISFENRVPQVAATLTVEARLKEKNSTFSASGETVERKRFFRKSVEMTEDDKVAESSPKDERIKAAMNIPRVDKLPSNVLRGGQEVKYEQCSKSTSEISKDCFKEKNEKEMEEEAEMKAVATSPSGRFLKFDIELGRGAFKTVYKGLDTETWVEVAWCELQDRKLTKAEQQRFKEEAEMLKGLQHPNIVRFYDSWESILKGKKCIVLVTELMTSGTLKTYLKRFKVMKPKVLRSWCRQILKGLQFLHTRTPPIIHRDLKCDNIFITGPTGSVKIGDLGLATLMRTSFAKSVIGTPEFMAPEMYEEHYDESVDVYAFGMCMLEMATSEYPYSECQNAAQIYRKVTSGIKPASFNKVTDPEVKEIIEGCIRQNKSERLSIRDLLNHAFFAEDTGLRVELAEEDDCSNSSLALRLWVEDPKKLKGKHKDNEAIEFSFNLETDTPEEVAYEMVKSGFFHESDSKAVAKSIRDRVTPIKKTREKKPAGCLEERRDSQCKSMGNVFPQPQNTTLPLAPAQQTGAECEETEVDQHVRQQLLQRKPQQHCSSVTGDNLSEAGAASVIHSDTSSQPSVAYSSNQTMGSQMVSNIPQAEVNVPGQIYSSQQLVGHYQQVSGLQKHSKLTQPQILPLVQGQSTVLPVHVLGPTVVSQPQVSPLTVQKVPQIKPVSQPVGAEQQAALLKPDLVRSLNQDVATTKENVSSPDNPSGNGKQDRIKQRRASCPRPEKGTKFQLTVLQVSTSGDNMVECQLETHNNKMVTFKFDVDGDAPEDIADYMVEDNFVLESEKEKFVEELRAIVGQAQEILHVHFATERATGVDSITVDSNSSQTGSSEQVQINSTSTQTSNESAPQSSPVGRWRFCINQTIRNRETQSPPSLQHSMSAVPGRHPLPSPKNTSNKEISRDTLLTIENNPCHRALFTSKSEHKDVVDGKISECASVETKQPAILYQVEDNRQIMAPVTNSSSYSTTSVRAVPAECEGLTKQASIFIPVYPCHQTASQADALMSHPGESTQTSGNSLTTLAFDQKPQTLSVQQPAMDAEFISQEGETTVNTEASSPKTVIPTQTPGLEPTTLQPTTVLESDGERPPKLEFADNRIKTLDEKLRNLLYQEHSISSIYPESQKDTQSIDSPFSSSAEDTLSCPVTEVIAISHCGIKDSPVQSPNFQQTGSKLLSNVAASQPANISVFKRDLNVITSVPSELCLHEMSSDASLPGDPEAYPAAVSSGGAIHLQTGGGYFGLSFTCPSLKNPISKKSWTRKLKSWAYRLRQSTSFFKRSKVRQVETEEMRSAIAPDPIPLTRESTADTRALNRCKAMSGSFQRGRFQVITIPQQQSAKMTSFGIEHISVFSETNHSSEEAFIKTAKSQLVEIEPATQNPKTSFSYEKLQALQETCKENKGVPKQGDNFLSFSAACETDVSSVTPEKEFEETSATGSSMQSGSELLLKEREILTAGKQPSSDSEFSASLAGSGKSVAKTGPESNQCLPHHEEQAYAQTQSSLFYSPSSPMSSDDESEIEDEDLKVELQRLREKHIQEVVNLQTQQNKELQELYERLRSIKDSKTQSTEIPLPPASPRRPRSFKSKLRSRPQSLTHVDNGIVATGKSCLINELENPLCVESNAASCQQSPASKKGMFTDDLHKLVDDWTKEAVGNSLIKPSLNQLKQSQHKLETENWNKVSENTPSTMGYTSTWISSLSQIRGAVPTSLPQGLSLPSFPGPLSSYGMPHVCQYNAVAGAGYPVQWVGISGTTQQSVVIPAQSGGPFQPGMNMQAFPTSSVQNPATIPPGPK

Regarding “HRRIKAWLKKIKALARQLGVAA (mammal) [MMI-0500]”, the “% activity” value was 96% in assay [1]; −1% in assay [2]; 20% in assay [3]; 2% in assay [4]; 16% in assay [5]; 18% in [6]. Moreover, the “% activity” value is on record as 37% in assay [7]; 97% in [8]; 3% in assay [9]; -1% in [10]; 10% in [11]; 31% in assay [12]. In addition, the “% activity” value in assay [13] turned out to be 26%; in assay [14], 9%; in [15], 35%; in assay [16], 73%.
Consider “YARAAARQARAKALNRQLGVA (mammal) [MMI-0200]”, for which the “% activity” value in [1] is listed as 108%; in [2], 83%; in assay [3], 93%; in [4] it was 82%; in [5], 86%; in assay [6] it was 98%. The “% activity” value in assay [7] is 95%; in assay [8] it was 110%; in [9], 85%; in assay [10] it was 71%; in assay [11], 208%; in [12], 98%. The “% activity” value in assay [13] is 120%; in [14], 97%; in assay [15], 108%; in assay [16] it was 141%.
